How the values were obtained:
Experiment in all cases: holdup assay
Set-up in all cases: key: below the threshold = too weak to quantify, mostly under pKd 3.1 to 4
LRRC7, Q96NW7 = biological target: T1, LRRC7, Q96NW7
T1 sequence (Q96NW7 1440-1537, limits assumed, looked up): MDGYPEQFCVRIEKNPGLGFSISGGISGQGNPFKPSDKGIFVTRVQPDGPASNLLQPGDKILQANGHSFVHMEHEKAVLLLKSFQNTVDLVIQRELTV

PDZRN3_1, Q9UPQ7 = biological target: T2, PDZRN3_1, Q9UPQ7
T2 sequence (Q9UPQ7 244-349, limits assumed, looked up): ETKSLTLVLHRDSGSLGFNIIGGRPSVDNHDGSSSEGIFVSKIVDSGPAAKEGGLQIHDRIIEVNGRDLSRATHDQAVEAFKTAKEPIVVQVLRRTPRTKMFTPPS

MAST2, Q6P0Q8 = biological target: MAST2, Q6P0Q8
HTRA4, P83105 = biological target: T3, HTRA4, P83105
T3 sequence (P83105 378-476, limits assumed, looked up): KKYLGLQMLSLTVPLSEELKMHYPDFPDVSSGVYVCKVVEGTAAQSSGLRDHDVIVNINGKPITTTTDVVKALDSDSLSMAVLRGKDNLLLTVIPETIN

PCLO, Q9Y6V0 = biological target: T4, PCLO, Q9Y6V0
T4 sequence (Q9Y6V0 4491-4600, limits assumed, looked up): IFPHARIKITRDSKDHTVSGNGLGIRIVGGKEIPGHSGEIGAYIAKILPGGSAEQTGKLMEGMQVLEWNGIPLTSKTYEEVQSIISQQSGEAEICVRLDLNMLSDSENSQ

DLG1_2, Q12959 = biological target: DLG1_2, Q12959
Inadl_5, Q8NI35 = biological target: Inadl_5, Q8NI35
MAGI1_2, Q96QZ7 = biological target: MAGI1_2, Q96QZ7
GRIP2_4, Q9C0E4 = biological target: GRIP2_4, Q9C0E4
LIN7A, O14910 = biological target: T5, LIN7A, O14910
T5 sequence (O14910 103-200, limits assumed, looked up): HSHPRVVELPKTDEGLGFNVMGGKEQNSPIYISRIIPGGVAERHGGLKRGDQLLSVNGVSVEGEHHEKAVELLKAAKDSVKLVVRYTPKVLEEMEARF

RADIL, Q96JH8 = biological target: T6, RADIL, Q96JH8
T6 sequence (Q96JH8 971-1071, limits assumed, looked up): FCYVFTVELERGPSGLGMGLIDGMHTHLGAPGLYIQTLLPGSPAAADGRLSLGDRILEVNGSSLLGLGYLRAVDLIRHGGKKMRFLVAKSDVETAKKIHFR

IL16_1, Q14005 = biological target: IL16_1, Q14005
LAP2, Q96RT1 = biological target: LAP2, Q96RT1
RHPN1, Q8TCX5 = biological target: T7, RHPN1, Q8TCX5
T7 sequence (Q8TCX5 508-602, limits assumed, looked up): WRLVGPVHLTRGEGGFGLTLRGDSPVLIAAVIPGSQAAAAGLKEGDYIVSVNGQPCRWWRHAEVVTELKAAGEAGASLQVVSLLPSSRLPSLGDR

Inadl_2, Q8NI35 = biological target: Inadl_2, Q8NI35
DLG4_1, P78352 = biological target: DLG4_1, P78352
MPP7, Q5T2T1 = biological target: T8, MPP7, Q5T2T1
T8 sequence (Q5T2T1 134-230, limits assumed, looked up): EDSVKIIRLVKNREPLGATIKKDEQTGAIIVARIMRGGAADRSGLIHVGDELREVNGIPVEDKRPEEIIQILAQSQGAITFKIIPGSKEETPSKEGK

PICK1, Q9NRD5 = biological target: PICK1, Q9NRD5
NHERF3_4, Q5T2W1 = biological target: T9, NHERF3_4, Q5T2W1
T9 sequence (Q5T2W1 373-468, limits assumed, looked up): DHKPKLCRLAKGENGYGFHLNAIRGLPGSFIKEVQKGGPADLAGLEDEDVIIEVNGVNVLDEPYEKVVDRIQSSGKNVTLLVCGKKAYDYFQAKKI

NHERF3_1, Q5T2W1 = biological target: T10, NHERF3_1, Q5T2W1
T10 sequence (Q5T2W1 4-100, limits assumed, looked up): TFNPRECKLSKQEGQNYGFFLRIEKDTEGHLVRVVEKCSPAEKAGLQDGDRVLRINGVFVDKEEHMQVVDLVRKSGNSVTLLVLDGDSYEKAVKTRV

PARD3_3, Q8TEW0 = biological target: PARD3_3, Q8TEW0
DFNB31_1, Q9P202 = biological target: T11, DFNB31_1, Q9P202
T11 sequence (Q9P202 135-233, limits assumed, looked up): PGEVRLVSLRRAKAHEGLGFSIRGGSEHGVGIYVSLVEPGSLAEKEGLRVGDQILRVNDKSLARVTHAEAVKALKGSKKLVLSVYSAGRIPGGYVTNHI

GRIP1_3, Q9Y3R0 = biological target: T12, GRIP1_3, Q9Y3R0
T12 sequence (Q9Y3R0 247-346, limits assumed, looked up): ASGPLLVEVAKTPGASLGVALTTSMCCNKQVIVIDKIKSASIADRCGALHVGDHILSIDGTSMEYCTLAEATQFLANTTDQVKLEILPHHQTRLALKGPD

ARHGEF12, Q9NZN5-2 = biological target: ARHGEF12, Q9NZN5-2
[1] = plain residues with an end cap or a label only (N-terminal biotin on a linker: ttds)
[2] = plain residues with an end cap or a label only (N-terminal biotin on a linker: ado-ado)
[3] = plain residues with an end cap or a label only (N-terminal biotin on a linker: ahx)

Sequence of MAST2, Q6P0Q8 (Q6P0Q8 1099-1202): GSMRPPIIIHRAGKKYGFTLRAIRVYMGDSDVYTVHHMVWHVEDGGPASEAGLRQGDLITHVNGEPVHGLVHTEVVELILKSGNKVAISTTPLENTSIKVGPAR
Sequence of LAP2, Q96RT1 (Q96RT1 other isoform, or with tags, fused parts or gaps): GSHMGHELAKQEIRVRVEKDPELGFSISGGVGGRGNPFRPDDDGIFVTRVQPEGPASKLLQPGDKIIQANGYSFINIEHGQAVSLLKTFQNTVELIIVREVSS
Sequence of MAGI1_2, Q96QZ7 (Q96QZ7 456-580): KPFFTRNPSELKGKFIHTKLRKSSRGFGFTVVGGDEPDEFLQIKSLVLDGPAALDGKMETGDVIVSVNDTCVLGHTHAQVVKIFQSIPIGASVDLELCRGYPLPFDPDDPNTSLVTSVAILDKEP
Sequence of GRIP2_4, Q9C0E4 (Q9C0E4 446-548): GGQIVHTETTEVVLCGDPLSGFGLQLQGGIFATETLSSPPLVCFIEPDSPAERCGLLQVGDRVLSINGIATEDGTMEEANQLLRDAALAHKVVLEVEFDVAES
Sequence of PICK1, Q9NRD5 (Q9NRD5 17-115): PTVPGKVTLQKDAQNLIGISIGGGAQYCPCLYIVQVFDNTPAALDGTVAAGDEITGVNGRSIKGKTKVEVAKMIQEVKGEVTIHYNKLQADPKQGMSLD
Sequence of IL16_1, Q14005 (Q14005 210-306): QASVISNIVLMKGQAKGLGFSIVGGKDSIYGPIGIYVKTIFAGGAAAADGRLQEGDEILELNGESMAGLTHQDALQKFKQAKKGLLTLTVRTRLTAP
Sequence of ARHGEF12, Q9NZN5-2 (Q9NZN5 other isoform, or with tags, fused parts or gaps): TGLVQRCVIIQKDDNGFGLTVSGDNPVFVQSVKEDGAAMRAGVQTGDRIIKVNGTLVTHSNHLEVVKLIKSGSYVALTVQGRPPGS
Sequence of DLG4_1, P78352 (P78352 62-152): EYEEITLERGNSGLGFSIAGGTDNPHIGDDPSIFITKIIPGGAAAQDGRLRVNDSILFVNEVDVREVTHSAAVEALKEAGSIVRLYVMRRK
Sequence of PARD3_3, Q8TEW0 (Q8TEW0 582-685): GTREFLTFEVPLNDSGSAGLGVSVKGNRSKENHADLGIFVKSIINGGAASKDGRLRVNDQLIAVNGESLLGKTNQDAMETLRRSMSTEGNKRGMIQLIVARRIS
Sequence of Inadl_5, Q8NI35 (Q8NI35 673-780): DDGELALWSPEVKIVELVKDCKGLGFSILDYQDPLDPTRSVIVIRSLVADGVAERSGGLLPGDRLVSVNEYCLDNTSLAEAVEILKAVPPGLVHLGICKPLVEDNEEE
Sequence of Inadl_2, Q8NI35 (Q8NI35 238-335): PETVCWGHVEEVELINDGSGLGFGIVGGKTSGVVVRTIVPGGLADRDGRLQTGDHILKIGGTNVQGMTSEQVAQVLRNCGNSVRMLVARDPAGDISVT
Sequence of DLG1_2, Q12959 (Q12959 314-412): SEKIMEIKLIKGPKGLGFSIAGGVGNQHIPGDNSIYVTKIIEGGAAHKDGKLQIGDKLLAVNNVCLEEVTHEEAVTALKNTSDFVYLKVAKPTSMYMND

Binder: RTRQRNETQV [HPV51-E6, P26554]
- pKd (LRRC7, Q96NW7; [1]): below the threshold
- pKd (PDZRN3_1, Q9UPQ7; [1]): 4.06
- pKd (MAST2, Q6P0Q8; [1]): 5.27
- pKd (HTRA4, P83105; [1]): below the threshold
- pKd (PCLO, Q9Y6V0; [1]): below the threshold
- pKd (DLG1_2, Q12959; [1]): 5.13
- pKd (Inadl_5, Q8NI35; [1]): 3.4
- pKd (MAGI1_2, Q96QZ7; [1]): 5.93
- pKd (GRIP2_4, Q9C0E4; [1]): below the threshold
- pKd (LIN7A, O14910; [1]): below the threshold
- pKd (RADIL, Q96JH8; [1]): 3.82
- pKd (IL16_1, Q14005; [1]): below the threshold
- pKd (LAP2, Q96RT1; [1]): 3.69
- pKd (RHPN1, Q8TCX5; [1]): 3.7
- pKd (Inadl_2, Q8NI35; [1]): below the threshold
- pKd (DLG4_1, P78352; [1]): 4.9
- pKd (MPP7, Q5T2T1; [1]): below the threshold
- pKd (PICK1, Q9NRD5; [1]): below the threshold
- pKd (NHERF3_4, Q5T2W1; [1]): below the threshold
- pKd (NHERF3_1, Q5T2W1; [1]): 4.17
- pKd (PARD3_3, Q8TEW0; [1]): below the threshold
- pKd (DFNB31_1, Q9P202; [1]): 3.47
- pKd (GRIP1_3, Q9Y3R0; [1]): below the threshold
- pKd (ARHGEF12, Q9NZN5-2; [1]): 3.73

Binder: EEPEERHTEL [CES2, O00748]
- pKd (LRRC7, Q96NW7; [2]): 3.61
- pKd (PDZRN3_1, Q9UPQ7; [2]): 4.15
- pKd (MAST2, Q6P0Q8; [2]): 5.44
- pKd (HTRA4, P83105; [2]): below the threshold
- pKd (PCLO, Q9Y6V0; [2]): below the threshold
- pKd (DLG1_2, Q12959; [2]): 4.13
- pKd (Inadl_5, Q8NI35; [2]): below the threshold
- pKd (MAGI1_2, Q96QZ7; [2]): below the threshold
- pKd (GRIP2_4, Q9C0E4; [2]): below the threshold
- pKd (LIN7A, O14910; [2]): below the threshold
- pKd (RADIL, Q96JH8; [2]): below the threshold
- pKd (IL16_1, Q14005; [2]): below the threshold
- pKd (LAP2, Q96RT1; [2]): below the threshold
- pKd (RHPN1, Q8TCX5; [2]): 4.19
- pKd (Inadl_2, Q8NI35; [2]): below the threshold
- pKd (DLG4_1, P78352; [2]): below the threshold
- pKd (MPP7, Q5T2T1; [2]): 3.79
- pKd (PICK1, Q9NRD5; [2]): below the threshold
- pKd (NHERF3_4, Q5T2W1; [2]): 4.48
- pKd (NHERF3_1, Q5T2W1; [2]): 4.72
- pKd (PARD3_3, Q8TEW0; [2]): 3.61
- pKd (DFNB31_1, Q9P202; [2]): 3.6
- pKd (GRIP1_3, Q9Y3R0; [2]): below the threshold
- pKd (ARHGEF12, Q9NZN5-2; [2]): 5.03

Binder: QGRWDHETIV [TMEM215, Q68D42]
- pKd (LRRC7, Q96NW7; [3]): 3.76
- pKd (PDZRN3_1, Q9UPQ7; [3]): 3.73
- pKd (MAST2, Q6P0Q8; [3]): 4.86
- pKd (HTRA4, P83105; [3]): 3.53
- pKd (PCLO, Q9Y6V0; [3]): below the threshold
- pKd (DLG1_2, Q12959; [3]): 4.81
- pKd (Inadl_5, Q8NI35; [3]): 3.63
- pKd (MAGI1_2, Q96QZ7; [3]): 3.84
- pKd (GRIP2_4, Q9C0E4; [3]): below the threshold
- pKd (LIN7A, O14910; [3]): below the threshold
- pKd (RADIL, Q96JH8; [3]): 4.83
- pKd (IL16_1, Q14005; [3]): 4.4
- pKd (LAP2, Q96RT1; [3]): 4.09
- pKd (RHPN1, Q8TCX5; [3]): 4.59
- pKd (Inadl_2, Q8NI35; [3]): 4.22
- pKd (DLG4_1, P78352; [3]): 4.68
- pKd (MPP7, Q5T2T1; [3]): 3.63
- pKd (PICK1, Q9NRD5; [3]): 4.06
- pKd (NHERF3_4, Q5T2W1; [3]): 3.52
- pKd (NHERF3_1, Q5T2W1; [3]): 4.07
- pKd (PARD3_3, Q8TEW0; [3]): 4.47
- pKd (DFNB31_1, Q9P202; [3]): 3.86
- pKd (GRIP1_3, Q9Y3R0; [3]): below the threshold
- pKd (ARHGEF12, Q9NZN5-2; [3]): 3.71

Reference: article PMC9482650, “Quantitative fragmentomics allow affinity mapping of interactomes” (Nature Communications, 2022)
